± gives the half width of the 95% confidence interval.
Tests used:
[1] = folding stability dG unfold from trypsin proteolysis; higher = more stable
Method in brief: (§1)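 Only designs with AlphaFold2 dimer inter-PAE above 15 were retained; each was a mini-protein under 80 residues with no cysteine, in a PA-tagged cDNA display construct. After digestion with trypsin and chymotrypsin and sequencing, K50 was inferred by Bayesian fitting of counts, and unfolding free energy was derived per protease or combined against a sequence-predicted unfolded-state K50 and a shared folded-state K50.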

[2] = folding stability dG unfold from chymotrypsin proteolysis; higher = more stable
Method in brief: as §1

[3] = folding stability dG unfold (combined trypsin and chymotrypsin); higher = more stable
Method in brief: as §1

| Sequence | folding stability dG unfold [1] | folding stability dG unfold [2] | folding stability dG unfold [3] |
| --- | --- | --- | --- |
| SAGGSAKVIMFPSLEEALDLAKEAMGHGKPIQIFLPDGYMIEIEVKPDPDGKPKIDIKWRKLPPDDSAGGSA [r15_761_TrROS] | 2.02 ± 0.13 kcal/mol | 2.8 ± 0.074 kcal/mol | 2.55 ± 0.21 kcal/mol |
| SAGGSAKVIRVKSLEEALKLAEEAKKAGLEVEIKLLPDGSVLITVKPKPKPKVKKVEKKVKLPEGKSAGGSA [r15_761_TrROS_Hall] | 0.507 ± 0.074 kcal/mol | 1.96 ± 0.077 kcal/mol | 1.36 ± 0.15 kcal/mol |
| SAGGSAKVKIEVIELPPGMTEEELRKLAEEKGLKVEKVDKENLLVKITAKSKEEAEKIKKELEEKLSAGGSA [r15_546_TrROS_Hall] | 0.449 ± 0.14 kcal/mol | 0.748 ± 0.13 kcal/mol | 0.511 ± 0.27 kcal/mol |
| SAGGSAKVKYKKDKNGNTYPVVEEKKKIKLTVKIKIFDKNGKLVKEITFPANMTLEEIEKEIKKLLSAGGSA [r15_309_TrROS_Hall] | 1.16 ± 0.11 kcal/mol | 1.79 ± 0.11 kcal/mol | 1.61 ± 0.18 kcal/mol |
| SAGGSAKVVEKDGKLVIELEVPPDMSEEELKKLAEELAKLLPPGAKIEVKYDKETKRVVIVVELKDSAGGSA [r15_210_TrROS_Hall] | 1.64 ± 0.12 kcal/mol | 1.79 ± 0.16 kcal/mol | 1.79 ± 0.14 kcal/mol |
| SAGGSAKYYYIVAEIDLPNKKVRFVKKVKKGDVEKFKAEIKKAFPGKKIKVKVIEFESEEEAKKAASAGGSA [r15_889_TrMRF] | 3.13 ± 0.14 kcal/mol | 4.373 ± 0.043 kcal/mol | 4.01 ± 0.088 kcal/mol |
| SAGGSALADRIAELARELGFEPVEIRYDPETGEVYALVRKPGGLLLRMRVEVDDDELHIEIEPLTDSAGGSA [r15_561_TrMRF] | 4.34 ± 0.1 kcal/mol | 5.27 ± 0.058 kcal/mol | 5.18 ± 0.095 kcal/mol |
| SAGGSALADRIKEIARENGFEPESVQFDPGNGHLMISIEPPDGRGVVVQIDIDNNNLKIQIQPLDDSAGGSA [r15_561_TrROS] | 1.2 ± 0.075 kcal/mol | 0.792 ± 0.099 kcal/mol | 1.03 ± 0.13 kcal/mol |
| SAGGSALRIPPGEKIKVRNPDNGKPFEFKVTNWQMNPNGNAYFQVEMTSDGKKVKWPIPLDDIEVVSAGGSA [r15_62_TrROS] | -0.397 ± 0.21 kcal/mol | 0.358 ± 0.37 kcal/mol | 0.0757 ± 0.28 kcal/mol |
| SAGGSAMAPNVRPIPIFIDVPAEPFTRDPDGRIGLTPEELARRLAEEIRARTGAPIDTIVVHFHEPSAGGSA [r15_415_TrMRF] | 0.773 ± 0.11 kcal/mol | -0.0348 ± 0.18 kcal/mol | 0.409 ± 0.092 kcal/mol |
| SAGGSAMAYLVRAELEVEGPDGRRERLELVLVAEDLPLEEALAAAREAAAELGAELVSVEVEPLEPSAGGSA [r15_550_TrMRF] | 0.858 ± 0.061 kcal/mol | 2.55 ± 0.039 kcal/mol | 2.21 ± 0.098 kcal/mol |
| SAGGSAMESFLGAAKEVLSQMEPGEIVLLPLERPDDKPLLVLLDPTTRRLVVFYPDGGYEEFDFPESAGGSA [r15_977_TrMRF] | 2.74 ± 0.046 kcal/mol | 2.9 ± 0.064 kcal/mol | 2.86 ± 0.079 kcal/mol |
| SAGGSAMFKSPSDKYFEPIAVIDLEKASPETLKALLEENPGKLLVIPKSTGKPRLIPAEELLELLGSAGGSA [r15_904_TrMRF] | 0.0892 ± 0.21 kcal/mol | -0.154 ± 0.41 kcal/mol | 0.0646 ± 0.2 kcal/mol |
| SAGGSAMFVVVEVESPEELRELVEEEDPSVFLLPTEDGEERLVVVDPENPENIRVIPLERPELLAPSAGGSA [r15_11_TrMRF] | 0.535 ± 0.042 kcal/mol | -0.285 ± 0.27 kcal/mol | 0.27 ± 0.068 kcal/mol |
| SAGGSAMGTLRLGFVTGPDEEGRYEILDVTLEPGEPVLVTLRARFTFPDGDSVEVPFRFVVPPELLSAGGSA [r15_187_TrMRF] | 2.78 ± 0.038 kcal/mol | 3.15 ± 0.048 kcal/mol | 2.96 ± 0.12 kcal/mol |
| SAGGSAMIEIEINGKKYKIEIVKVEEKDGKVKVKIKIKDKETGKEIEIEIEMPKEELEKLLKEILSSAGGSA [r15_944_TrROS_Hall] | 2.79 ± 0.27 kcal/mol | 3.97 ± 0.28 kcal/mol | 3.65 ± 0.48 kcal/mol |
| SAGGSAMIKIKLPNGEVAEIELSPDGKKVLIRYKDGSIEEIEIKDGKITKIKPLPNAPPNAEIVEVSAGGSA [r15_709_TrROS_Hall] | 1.92 ± 0.029 kcal/mol | 2.72 ± 0.041 kcal/mol | 2.47 ± 0.077 kcal/mol |

Source: the supplement of paper PMC12764529
